# Publication PMC8079763 (2021)
# Target: T1, GST tagged ecto-basigin (recombinant mouse basigin) (mouse (C57BL/6J), UniProt P18572 22-325)
# T1 chain: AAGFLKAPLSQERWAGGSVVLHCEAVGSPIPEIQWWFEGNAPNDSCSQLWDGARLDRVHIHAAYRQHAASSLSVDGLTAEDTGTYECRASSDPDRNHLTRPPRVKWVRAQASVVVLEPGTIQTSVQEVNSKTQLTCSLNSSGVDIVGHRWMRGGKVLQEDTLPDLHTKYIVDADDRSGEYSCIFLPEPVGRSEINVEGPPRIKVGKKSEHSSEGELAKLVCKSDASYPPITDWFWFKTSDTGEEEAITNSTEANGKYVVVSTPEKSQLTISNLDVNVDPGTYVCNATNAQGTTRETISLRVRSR
# Assay: SPR
row,Molecule,koff [s⁻¹]
1,recombinant PyEBL ectodomain spanning region 1 to region 6 (PyEBL R1-6; amino acids V28-N788) (domain or fragment) VNLLKRTYESFQSFPLKNNSGNRILYELKESLYNIENGETWGDLVSKDNEIFGGKDHILSENYTSDSVNSKKESNFLETGKISLVEKNGNVNYKDYFDKYQVNECKEKNKNEIHAWICDNEKQNCIPSRRINLCTKRLEIIPDTIKIPDNKTKELLMDYFKQFIYKDAAREGELLLNKYDDKNNNEYCNDMINSFGDYKNIVEGTGLKNVANESLLELKIQNIFGTDDNAKRNRKTWWKNHEHIVWKAMVLGKNFNETSNYKNVCTNYKLEDYHSQIERWTREWIQEFSVQYFKEANKINNKCTKKSNISTESICINNECKNACNTYEAWISVNKSKWDTLLQRFSQFNKSYFSEETCRDKAYNSLMIEFKEAYEANFENVINLDDDHYTGLCVCSSVKPSNTPINNNLGYKQTLETQNPTDASQNTLFPPFSTGTETDLFKEDDDDNGGFDLLSYNNADAQNLRNSTPTDQVGVNNEQNKLNQNAESNNKYELQIMGNHANSDNTYHNIIIPSQENNIYTSTPESVTINPTSTSNTNENQTLTPNSTLTPTLTSNSNPTQIPTQPQPQFPIPPQPQFPIPPETQFPIPPETQIPTPTLNPNATNKGVKEHHFNTNGIENGNTMKDQMNIPPIKFNIDPKHDNTINGGFSRINNDNDSENANKLGIDEYEHRDIKKSRENIIMLANENVCNGNPGLKYCESINNKYFHGTCSKSQTQNLCCSISNYCIKFFNINSKKYYDCMNEEFMAPDYNCFQKESYSN,0.00106
2,recombinant PyEBL R1-2 (amino acid V28-G437) (domain or fragment) VNLLKRTYESFQSFPLKNNSGNRILYELKESLYNIENGETWGDLVSKDNEIFGGKDHILSENYTSDSVNSKKESNFLETGKISLVEKNGNVNYKDYFDKYQVNECKEKNKNEIHAWICDNEKQNCIPSRRINLCTKRLEIIPDTIKIPDNKTKELLMDYFKQFIYKDAAREGELLLNKYDDKNNNEYCNDMINSFGDYKNIVEGTGLKNVANESLLELKIQNIFGTDDNAKRNRKTWWKNHEHIVWKAMVLGKNFNETSNYKNVCTNYKLEDYHSQIERWTREWIQEFSVQYFKEANKINNKCTKKSNISTESICINNECKNACNTYEAWISVNKSKWDTLLQRFSQFNKSYFSEETCRDKAYNSLMIEFKEAYEANFENVINLDDDHYTGLCVCSSVKPSNTPINNNLG,0.00713
3,"recombinant PyEBL R2, the N-terminal Cys-rich Duffy binding-like region (E113-G437) (domain or fragment) EKNGNVNYKDYFDKYQVNECKEKNKNEIHAWICDNEKQNCIPSRRINLCTKRLEIIPDTIKIPDNKTKELLMDYFKQFIYKDAAREGELLLNKYDDKNNNEYCNDMINSFGDYKNIVEGTGLKNVANESLLELKIQNIFGTDDNAKRNRKTWWKNHEHIVWKAMVLGKNFNETSNYKNVCTNYKLEDYHSQIERWTREWIQEFSVQYFKEANKINNKCTKKSNISTESICINNECKNACNTYEAWISVNKSKWDTLLQRFSQFNKSYFSEETCRDKAYNSLMIEFKEAYEANFENVINLDDDHYTGLCVCSSVKPSNTPINNNLG",0.00104

# Target: GST tagged ecto-basigin (recombinant mouse basigin) (mouse (C57BL/6J)) (UniProt P18572)
# Assay: SPR; Biacore X100; recombinant mouse basigin (GST tagged) immobilised on CM5 chip by amine coupling; PyEBL regions as analytes; HBS-EP+ (10 mM HEPES pH 7.4, 150 mM NaCl, 3 mM EDTA, 0.05% P20); single-cycle kinetics, 1:1 binding model
row,Molecule,Kd [nM]
1,recombinant PyEBL C351Y (domain or fragment),26
2,recombinant PyEBL R1-2 (amino acid V28-G437) (domain or fragment),16
3,"recombinant PyEBL R2, the N-terminal Cys-rich Duffy binding-like region (E113-G437) (domain or fragment)",34
4,recombinant PyEBL ectodomain spanning region 1 to region 6 (PyEBL R1-6; amino acids V28-N788) (domain or fragment),33
